{"source": "patent US20230304023A1", "about": "“BILE SALTS B[…] USE THEREOF FOR DIAGNOSTIC AND T[…]” (INSERM (INSTITUT NATIONAL DE LA SANTÉ ET DE LA RECHERCHE …, priority 2020, published 2023)", "key": {"bile salts [1]": {"tested_on": "bile salts", "assay": "Specificity testing of the CadC-TcpP bactosensor across a panel of twelve bile salts"}, "Taurocholic acid": {"tested_on": "Taurocholic acid", "assay_type": "cell-based, E. coli"}, "bile salts [2]": {"tested_on": "bile salts", "assay_type": "cell-based, E. coli", "details": "kinetic analysis, data not shown"}}, "data": [{"molecule": "TcpPwt: Wild-type V. cholerae TcpP bile salt sensing domain, loop NYEQ (SEQ ID NO:4/24), fused to E. coli CadC DNA binding domain (SEQ ID NO:48) (protein, Synthetic bile salts chimeric receptor) MQQPVVRVGEWLVTPSINQISRNGRQLTLEPRLIDLLVFFAQHSGEVLSRDELIDNVWKRSIVTNHVVTQSISELRKSLKDNDEDSPVYIATVPKRGYKLMVPVIWYSEEEGEEIMLSSPPPIPEAVPATDSPSHSLNIQNTATPPEQSPVKSKRVVPYLVFSALYVALLPVIWWSYGQWYQHELAGITHDLRDLARLPGITIQKLSEQKLTFAIDQHQCSVNYEQKTLECTKN", "values": [{"measurement": "response to secondary bile salts", "setting": "bile salts [1]", "value": "did not respond"}, {"measurement": "specificity across bile salts", "setting": "bile salts [1]; primary and secondary types", "value": "highly specific for primary conjugated bile salts"}]}, {"molecule": "SV_3-3-16: TcpP bile salt sensing domain variant, loop DFLT (SEQ ID NO:9/29), CadC fusion SEQ ID NO:53 (protein, Synthetic bile salts chimeric receptor) MQQPVVRVGEWLVTPSINQISRNGRQLTLEPRLIDLLVFFAQHSGEVLSRDELIDNVWKRSIVTNHVVTQSISELRKSLKDNDEDSPVYIATVPKRGYKLMVPVIWYSEEEGEEIMLSSPPPIPEAVPATDSPSHSLNIQNTATPPEQSPVKSKRVVPYLVFSALYVALLPVIWWSYGQWYQHELAGITHDLRDLARLPGITIQKLSEQKLTFAIDQHQCSVDFLTKTLECTKN", "values": [{"measurement": "EC50", "setting": "Taurocholic acid; taurocholic acid (TCA) as ligand, GFP output", "value": 42.1, "unit": "µM"}, {"measurement": "Max fold change", "setting": "Taurocholic acid; taurocholic acid titration", "value": 75.73}]}, {"molecule": "SV_3-3-18: TcpP bile salt sensing domain variant, loop VFSD (SEQ ID NO:10/30), CadC fusion SEQ ID NO:54; best engineered variant (protein, Synthetic bile salts chimeric receptor) MQQPVVRVGEWLVTPSINQISRNGRQLTLEPRLIDLLVFFAQHSGEVLSRDELIDNVWKRSIVTNHVVTQSISELRKSLKDNDEDSPVYIATVPKRGYKLMVPVIWYSEEEGEEIMLSSPPPIPEAVPATDSPSHSLNIQNTATPPEQSPVKSKRVVPYLVFSALYVALLPVIWWSYGQWYQHELAGITHDLRDLARLPGITIQKLSEQKLTFAIDQHQCSVVFSDKTLECTKN", "values": [{"measurement": "response speed at low ligand concentration compared to wt TcpP", "setting": "bile salts [2]", "value": "faster response at low ligand concentration"}]}]}
